Results published in PMC8258042.

Target: cardiac troponin I (cTnI) (human, UniProt P19429 2-210)
Assay: strand displacement

Chain of cardiac troponin I (cTnI) (P19429 2-210): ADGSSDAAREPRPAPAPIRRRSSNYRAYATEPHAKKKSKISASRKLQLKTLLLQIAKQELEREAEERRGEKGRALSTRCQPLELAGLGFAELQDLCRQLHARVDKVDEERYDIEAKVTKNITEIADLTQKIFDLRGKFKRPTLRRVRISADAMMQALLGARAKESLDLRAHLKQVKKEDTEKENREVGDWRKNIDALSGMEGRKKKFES

B1: Poly-T (ssDNA)
DNA: TTTTTTTTTTTTTTTTTTTTCTCATGCGCTGCCCCTCTTATTTTTTTTTTT
modifications: 3'-NH2
**Q.** Does B1 bind?
**A.** no binding
